Positions count from the first letter of the chain named. Each block holds one binder with its values, some of them ahead of it.
How the values were obtained:
[1] = molecular target: human IgG antibody (human); experiment: sandwich chemiluminescence immunoassay (HISCL-800); detection reagent stored at 40° C. for 1 week
[2] = molecular target: human IgG antibody (human); experiment: sandwich chemiluminescence immunoassay (HISCL-800); PC counts over NC counts, R3 reagent stored at 4° C.
[3] = molecular target: human IgG antibody (human); experiment: sandwich chemiluminescence immunoassay on magnetic particles (HISCL-800); capture biotin-labeled mouse anti-human IgG semi-IgG; binder as detection antibody, 0.051 U/mL
[4] = molecular target: human IgG antibody (human); experiment: sandwich chemiluminescence immunoassay on magnetic particles (HISCL-800); capture biotin-labeled mouse anti-human IgG semi-IgG; binder as detection antibody, 0.052 U/mL
[5] = molecular target: T1, human CD80/B7-1 protein (His tag) (human, UniProt P33681 35-242); experiment: sandwich chemiluminescence ELISA; capture rabbit anti-CD80 IgG on plate, antigen 0.005-20 ng/mL, binder as detection antibody at 200 ng/mL
T1 construct: Recombinant His-tagged protein used as the antigen solution; also called antigen
T1 sequence (looked up): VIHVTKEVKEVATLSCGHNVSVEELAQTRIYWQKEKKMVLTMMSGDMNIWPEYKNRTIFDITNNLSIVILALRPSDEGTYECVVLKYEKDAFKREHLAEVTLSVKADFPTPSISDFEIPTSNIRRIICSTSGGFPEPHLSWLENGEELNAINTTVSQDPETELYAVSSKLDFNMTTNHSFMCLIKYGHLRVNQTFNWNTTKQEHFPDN
Protocol: Rabbit anti-CD80 antibody (IgG) was diluted with PBS to 1 μg/mL. The resulting antibody solution was added to a 96-well black plate at 100 μL/well and allowed to stand overnight at 4° C. to immobilize the antibody in the wells. After removing the antibody solution from the plate, Buffer I′ (100 mM HEPES, 1% BSA, 0.05% ProClin (trademark), 1 mM MgCl₂, 0.1 mM ZnCl₂, pH 8.0) was added at 300 μL/well and allowed to stand overnight at 4° C. for blocking. After removing the solution from the plate, a human CD80/B7-1 protein (His tag) solution (0.005, 0.020, 0.078, 0.313, 1.25, 5.0 or 20 ng/mL) was added as an antigen solution at 100 μL/well. The plate was shaken at room temperature at 500 rpm for 1 hour to perform an antigen-antibody reaction. The plate was washed three times with a HISCL washing solution (Sysmex Corporation), and then each ALP fusion antibody (200 ng/mL) of Example 1 diluted with Buffer I′ was added at 100 μL/well. The plate was shaken at room temperature at 500 rpm for 1 hour to perform an antigen-antibody reaction. After washing the plate with a HISCL washing solution three times, a HISCL R5 reagent (Sysmex Corporation) as a solution of a chemiluminescent substrate of ALP was added at 100 μL/well, and luminescence intensity was immediately measured with FLUOstar OPTIMA (BMG LABTECH).

[6] = molecular target: human IgG antibody (human); experiment: sandwich chemiluminescence immunoassay on magnetic particles (HISCL-800); capture biotin-labeled mouse anti-human IgG semi-IgG; binder as detection antibody, 0.055 U/mL

Counts (PC, R3 reagent stored at 40° C., 1 week) [1]: 320000 counts
S/N [2]: 737
Counts (PC, R3 reagent stored at 4° C.) [3]: 359000 counts
B1: ALP fusion antibody of Example 2 (GS1): Fab of mouse anti-human IgG antibody, Fd-GS1-BIAPII (Fab, part only; not given: Fd and light chain of anti-IgG Fab, part only)
heavy, part: GGGGSLIPAEEENPAFWNRQAAQALDVAKKLQPIQTAAKNVILFLGDGMGVPTVTATRILKGQMNGKLGPETPLAMDQFPYVALSKTYNVDRQVPDSAGTATAYLCGVKGNYRTIGVSAAARYNQCNTTRGNEVTSVINRAKKAGKAVGVVTTTRVQHASPAGAYAHTVNRNWYSDADLPADAQKNGCQDIAAQLVYNMDIDVILGGGRMYMFPEGTPDPEYPDDASVNGVRKDKQNLVQEWQAKHQGAQYVWNRTALLQAADDSSVTHLMGLFEPADMKYNVQQDHTKDPTLAEMTEAALQVLSRNPRGFYLFVEGGRIDHGHHDGKAYMALTEAIMFDNAIAKANELTSELDTLILVTADHSHVFSFGGYTLRGTSIFGLAPGKALDSKSYTSILYGNGPGYALGGGSRPDVNGSTSEEPSYRQQAAVPLASETHGGEDVAVFARGPQAHLVHGVQEETFVAHIMAFAGCVEPYTDCNLPAPA

Counts (PC, R3 reagent stored at 40° C., 1 week) [1]: 421000 counts
S/N [2]: 927
Counts (PC, R3 reagent stored at 4° C.) [4]: 463000 counts
B2: ALP fusion antibody of Example 2 (EK1): Fab of mouse anti-human IgG antibody, Fd-EK1-BIAPII (Fab, part only; not given: Fd and light chain of anti-IgG Fab, part only)
heavy, part: B1 heavy, part with G1E, G2A, G3A, G4A, S5K

Counts (PC, R3 reagent stored at 40° C., 1 week) [1]: 331000 counts
S/N [2]: 737
Counts (PC, R3 reagent stored at 4° C.) [3]: 364000 counts
B3: ALP fusion antibody of Example 2 (GS3): Fab of mouse anti-human IgG antibody, Fd-GS3-BIAPII (Fab, part only; not given: Fd and light chain of anti-IgG Fab, part only)
heavy, part: GGGGSGGGGSGGGGSLIPAEEENPAFWNRQAAQALDVAKKLQPIQTAAKNVILFLGDGMGVPTVTATRILKGQMNGKLGPETPLAMDQFPYVALSKTYNVDRQVPDSAGTATAYLCGVKGNYRTIGVSAAARYNQCNTTRGNEVTSVINRAKKAGKAVGVVTTTRVQHASPAGAYAHTVNRNWYSDADLPADAQKNGCQDIAAQLVYNMDIDVILGGGRMYMFPEGTPDPEYPDDASVNGVRKDKQNLVQEWQAKHQGAQYVWNRTALLQAADDSSVTHLMGLFEPADMKYNVQQDHTKDPTLAEMTEAALQVLSRNPRGFYLFVEGGRIDHGHHDGKAYMALTEAIMFDNAIAKANELTSELDTLILVTADHSHVFSFGGYTLRGTSIFGLAPGKALDSKSYTSILYGNGPGYALGGGSRPDVNGSTSEEPSYRQQAAVPLASETHGGEDVAVFARGPQAHLVHGVQEETFVAHIMAFAGCVEPYTDCNLPAPA

binding result [5]: binds
B4: ALP fusion antibody of Example 1 (EK3 linker): Fab of rabbit anti-CD80 antibody, Fd-EK3-BIAPII (Fab)
heavy: QSVEESGGRLVTPGTPLTLTCTASGFSLSNNAVSWVRQAPGEGLEWIGTISSNDNTYYATWAKGRFTISKTSTTVDLKITSPTTEDTATYFCAIYYYGYGYVFNLWGPGTLVTVSSGQPKAPSVFPLAPCCGDTPSSTVTLGCLVKGYLPEPVTVTWNSGTLTNGVRTFPSVRQSSGLYSLSSVVSVTSSSQPVTCNVAHPATNTKVDKTVAPSTCSKPTEAAAKEAAAKEAAAKLIPAEEENPAFWNRQAAQALDVAKKLQPIQTAAKNVILFLGDGMGVPTVTATRILKGQMNGKLGPETPLAMDQFPYVALSKTYNVDRQVPDSAGTATAYLCGVKGNYRTIGVSAAARYNQCNTTRGNEVTSVINRAKKAGKAVGVVTTTRVQHASPAGAYAHTVNRNWYSDADLPADAQKNGCQDIAAQLVYNMDIDVILGGGRMYMFPEGTPDPEYPDDASVNGVRKDKQNLVQEWQAKHQGAQYVWNRTALLQAADDSSVTHLMGLFEPADMKYNVQQDHTKDPTLAEMTEAALQVLSRNPRGFYLFVEGGRIDHGHHDGKAYMALTEAIMFDNAIAKANELTSELDTLILVTADHSHVFSFGGYTLRGTSIFGLAPGKALDSKSYTSILYGNGPGYALGGGSRPDVNGSTSEEPSYRQQAAVPLASETHGGEDVAVFARGPQAHLVHGVQEETFVAHIMAFAGCVEPYTDCNLPAPA
light: ELVMTQTPASVSEPVGGTVTINCQASEDIYSSLAWYQQKPGQRPKLLMYYASTLASGVPSRFKGSGSGTEFTLTISDLECADAATYYCQSYYLSSSSRYGNAFGGGTEVVVKGDPVAPTVLIFPPAADQVATGTVTIVCVANKYFPDVTVTWEVDGTTQTTGIENSKTPQNSADCTYNLSSTLTLTSTQYNSHKEYTCKVTQGTTSVVQSFIG
notes: Fab-enzyme fusion, dimer through the ALP subunits

Counts (PC, R3 reagent stored at 40° C., 1 week) [1]: 436000 counts
S/N [2]: 665
Counts (PC, R3 reagent stored at 4° C.) [6]: 465000 counts
B5: ALP fusion antibody of Example 2 (EK3): Fab of mouse anti-human IgG antibody, Fd-EK3-BIAPII (Fab, part only; not given: Fd and light chain of anti-IgG Fab, part only)
heavy, part: EAAAKEAAAKEAAAKLIPAEEENPAFWNRQAAQALDVAKKLQPIQTAAKNVILFLGDGMGVPTVTATRILKGQMNGKLGPETPLAMDQFPYVALSKTYNVDRQVPDSAGTATAYLCGVKGNYRTIGVSAAARYNQCNTTRGNEVTSVINRAKKAGKAVGVVTTTRVQHASPAGAYAHTVNRNWYSDADLPADAQKNGCQDIAAQLVYNMDIDVILGGGRMYMFPEGTPDPEYPDDASVNGVRKDKQNLVQEWQAKHQGAQYVWNRTALLQAADDSSVTHLMGLFEPADMKYNVQQDHTKDPTLAEMTEAALQVLSRNPRGFYLFVEGGRIDHGHHDGKAYMALTEAIMFDNAIAKANELTSELDTLILVTADHSHVFSFGGYTLRGTSIFGLAPGKALDSKSYTSILYGNGPGYALGGGSRPDVNGSTSEEPSYRQQAAVPLASETHGGEDVAVFARGPQAHLVHGVQEETFVAHIMAFAGCVEPYTDCNLPAPA

From patent US20210371867A1 (SYSMEX, published 2021)
